Test results: US10100120B2, “Antibody which specifically binds to human CRTH2” (KYOWA HAKKO KIRIN CO., LTD, priority 2015, dated 2018)

Tested on: differentiation-induced Th1 cells
Test: Reactivity against differentiation-induced Th1 cells
Type: binding, human
Details: antibody 10 μg/mL, 4° C., 1 hour; FIG. 15
Procedure: Healthy person-derived frozen PBMC (Allcells, LLC.) was washed once with 20 mL of PBMC culture medium containing 50 μL of DNase I recombinant, RNase-free (Roche Diagnostics K.K.), suspended with 20 mL of PBMC culture medium containing 50 μL of DNase I recombinant, RNase-free, and allowed to stand in a 5% CO2 incubator at 37° C. for 2 hours.
Thereafter, the cells were washed twice with the MACS buffer described in Example 11 and naive CD4-positive T-cells were isolated by a negative selection method using Naive CD4^+ T Cell Isolation Kit II human (Miltenyi Biotec) according to the attached instructions. The negative selection was performed twice in order to improve purity of the naive CD4-positive T-cells.
According to the method described in J Immunol, 2002. 169(5): p. […]
After the cells were washed, 10 μg/mL of CELL LAB Mouse Anti-Rat Kappa (kappa light chain specific) FITC (Beckman Coulter Inc.) diluted with SM was added to wells to which Lym2 antibody or BM16 was added, 10 μg/mL of CELL LAB Goat Anti-Mouse IgG (γ chain specific) Fluorescein (FITC) Conjugate (Beckman Coulter Inc.) diluted with SM was added to wells to which 301108 was added at a final concentration of 10 μg/mL to cause a reaction at 4° C. for 1 hour. After the cells were washed again, the cells were suspended with SM, and the fluorescent intensity was analyzed by flow cytometry (BD Biosciences, FACS CantoII).

B1: Lym2 antibody: rat anti-human CRTH2 monoclonal antibody from hybridoma Lym2, rat IgG2b; VH SEQ ID NO: 17, VL SEQ ID NO: 19 (antibody, listed as Rattus norvegicus, V domains shown)
VH: EVQLVESGGGLVQPGRSMKLSCAASGFTFSNYYMAWVRQAPKKGLEWVATISYDGSSTYYRDSVKGRFTISRDNAKSTLYLQMDSLRSEDTATYYCARHRGYYYSGAGYFDYWGQGVMVTVSS
VL: DVVLTQTPVSLSVTLGDQASISCRSSQSLEYSDGYTYLEWYLQKPGQSPQVLIYGVSNRFSGVPDRFIGSGSGTDFTLKISRVEPEDLGVYYCFQATHDPLTFGSGTKLEIK
reactivity against the differentiation-induced Th1: did not exhibit reactivity
